# According to article PMC10952558, “Domain shuffling of a highly mutable ligand‐binding fold drives adhesin generation across the bacterial kingdom” (Proteins, 2023):
# Read-outs that look alike come from different tables or passages of the source.
# Legend:
# [1] = molecular target: cellular fibronectin (human); test: MST; RED-NHS labeled cFn at 50 nM mixed with 16 concentrations (92 pM-3 uM) of the unlabeled protein; 637 mM NaCl, 2.7 mM KCl, 10 mM Na2HPO4, 1.8 mM KH2PO4, pH 7.4; 22-23°C; Monolith NT.115, MST power 40%, excitation 20%; triplicate; single-site dose-response model
# [2] = molecular target: cellular fibronectin (human); test: as above; remark: listed apart in the source
# [3] = molecular target: the molecule itself; test: crystal structure; dimeric SEC fraction of C-terminally His-tagged CshB_NR2; sitting drop, 20°C, 0.1 M SPG buffer pH 5, 25% w/v PEG 1500; molecular replacement with 5L2D; 1.4 Å
molecule,measurement,setting,value
"CshB_NR2 (NR2 domain of CshB), N-terminally hexa-histidine-tagged variant (from UniProt A8AXC5 211-528) (domain or fragment)",Kd,[1],530 nM
"CshA_NR2 (NR2 domain of cell surface hydrophobicity protein A), wild type (domain or fragment) WVDFSDTASMKNLDPQGGFKVGTVFKKEISPGYVVTLTVTELKPFNSTEIYKKRVEGTPTANTYDPNAINSYLKGYKDYGKTPPSVTGRPQNKFSTIGGQGFDTQGRKTQIILPDDAVNWGIKFKVEATYRGNPVKPSVVMADGEDANPAEYGIFTTNGEGWEYVGEWMKGPRAKGPYTVMTEDMVKAFDKTRKDGLLILKDKSVDWSKYLSPDTVTGGLGSQVFGPIISASKAVPVVMTRGASEVGFYVATGGQQALMMGFLVVDSSDAPASYGEAYHTIGTRDSIANTPINQPYLGSTAADIDADSESDWTADDRE",Kd,[2],302 nM
"CshB_NR2 (NR2 domain of CshB), C-terminally hexa-histidine-tagged variant, dimeric form (domain or fragment, CshB, Streptococcus gordonii DL1, NR2 domain, residues 211-528 of the full-length CshB polypeptide; amplified from chromosomal DNA, in pOPINE; Used for crystallization; Only the dimeric SEC fraction crystallised) WLDFSDSASWKNLDQRGGLKVGTTFTKEISPGYVVTLTVKELKPFNSTEIYKKRVAGTATEGTYNPDAENGFLTSAPYYGKTPPPSVTGAAQNEWTTIRDQGFNTQKRKTQLVYPMNSTNWGVKFDIEATYLGKRVAPTVVMADGEDANPGEFAIFTTNGTGWEYMGEWKMKSPAKEAYTVITKKMLDDEDVKRRGLLILKDKSVDWYKYLSPDTVTGGLGSQVFGPNRSNERTVPVVMTRGASEVGFYVASSGQQAMMMGFLVVDVSDAPESYGEAFHTISTRDSVTNDPINQPYLGTTPADIDVESSNDWVLDDKK",stoichiometry N,[3],2
